Variants at the floor of the assay were thinned out.
B1: TPR 5TU (parent)
chain: GGAUCUUCUCGAUCUAACAAAAAAGACAAAUCUGCCACAAAGCUUGAGAGCAUCUUCGGAUGCAGAGGCGGCAGCCUUCGGUGGCGCGAUAGCGCCAACGUUCUCAACUAUGACACGCAAAACGCGUGCUCCGUUGAAUGGAGUUUAUCAUG

Variants of: B1
Assay: polymerase ribozyme fitness, log enrichment relative to wild type (log ratio); higher = more active; in vitro selection for triplet polymerase activity
Method in brief: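 Mutant libraries for each subunit of a heterodimeric triplet polymerase ribozyme were made by PCR and then transcribed. Each library underwent one round of in vitro selection in triplicate: annealing with a biotinylated primer, the partner subunit and triplets, frozen incubation at −7 °C, gel excision of extended constructs, streptavidin-bead capture and RT-PCR. Input and output libraries were Illumina-sequenced, and only genotypes with ≥10 input reads and ≥1 read per output were kept. Fitness is the logarithm, base 2, of genotype enrichment over wild-type enrichment, computed from inverse-variance-weighted replicate averages.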

Variant	polymerase ribozyme fitness (log ratio)
GGAUCUUCUCGAUCUAACAAAAAAGACAAAUCUUCCACAAAGCUUGAGAGCAUCUUCGGAUGCAGAGGCGGCAGCCUUCGGUGGCGCGAUAGCGCCAACGUUCUCAACUAUGACACGCAAAACGCGUGCUCCGUUGAAUGGCGUUUAUCAUG	-3.85
GGAUCUUCUCGAUCUAACAAAAAAGACAAAUCUUCCACUAAGAUUGAGAGCAUCUUCGGAUGCAGAGGCGGCAGCCUUCGGUGGUGCGAUAGCGCCAACGUUCUCAACUAUGACACACAAAACGCGUGCUCCGUUGAAUGGAGUUUAUCAUG	-3.98
GGAUCUUCUCGAUCUAACAAAAAAGACAAAUCUUCCACAGAGCUUGAGAGCAUCUUCGGAUGCAGAGGUGGCAGCCUUCUGUGGCGCGAUAGCGCCAAUGUUCUCAGCUAUGACACGCAAAACGCGUGCUCCGUUGAAGUGAGUUUACCAUG	≤ -4.2
GGAUCUUCUCGAUCUAACAAAAAAGACAAAUCUUCCACAGAGCUUGAGAGCAUCUUCGGAUGCAGAGGCGGUAGCCUUCGGUGGCGCGAUAGCGCGAACGUUCUCAACUAUGACACGCAAAACGCGUGCUCCGUUGAAUGGAGUUUAUCAUG	≤ -4.2
GGAUCUUCUCGAUCUAACAAAAAAGACAAAUCUUCCACAAAGCUUGAGAGCAUCUUCGGAUGCAGAGGCGGCAGCCUUCGGUGGCGCGAUAGCGCCAACGUUCUCAACUAUGACACGCAAAACGCGUGCUCCGUUGAAUGGAGUUUAUCAUG	-1.11
GGAUCUUCUCGAUCUAACAAAAAAGACAAAUCUUCGACAAAGCUUGAGAGCAUCUUCGCAUGCAGAGGCGGCAGCCUUCGGUGGCGCGAUAGCGCCAACGUUCUCAACUAUGACACGCAAAACGCGUGCUCCGUUGAAUGGAGUUUACCAUG	≤ -4.2
GGAUCUUCUCGAUCUAACAAAAAAGACAAAUCUUCCACAGAGCUUGAGAGCAUCGACGGAUGCAGAGGCGGCAGCCUUCGGUGGCGCGAUAGCGCCAACGAGCUCAACUAUGACACGCAAAACGCAUGCUCCGUUGAAUGGAGUUUAUCAUG	≤ -4.2
GGAUCUUCUCGAUCUAACAAAAAAGACAAAUCUUCCACAAAGCUUGAGAGUAUCUUCGUAUGCAGAGGCGGCAGCCUUCGGUGGCGCAAUAGCGCCAACGUUCUCAACUAUGACACGCAAAACGCGUGCUCCGUUGAAUGUGGUUGUUCAUG	≤ -4.2
GGAUCUUCUCGAUCUAACAAAAAAGACAAAUCUUCCACUAAGCUUGAGAGCAACUUCGGAUGCUGAGGCGGCAGCCUUCGGUGGCGCGAUAGCGCCAACGUUCUCAACUAUGACAUGCAAAACGCGUGCUCCGUUGAAUGGAGUUGAUCAUG	≤ -4.2
GGAUCUUCUCGAUCUAACAAAAAAGACAAAUCUUCCACAAAGCUUGAGAGCAUUUUCGGAUGCAGAGGCGGCAGCCUGCGGUAGCGCGAUAGCGCCAACGUUCUCAAGUAUGACACGCAAAACGCGUGCUCCGUUGAAUGGAGUUUAUCAUG	-4.13
GGAUCUUCUCGAUCUAACAAAAAAGACAAAUCUUCCACAAAGCUUGAGAGAAUCUUCGGAUGCAGAGGCGGCAGCCUUCGGUGCCGCGAUAGCGCCAACGUUCUCAACUAUGACACGCAAAACGCGUGCUCCGUUGAAUGGAGUUUAUCAUG	≤ -4.2
GGAUCUUCUCGAUCUAACAAAAAAGACAAAUCUUCCACAAGGCUUGCGAGCAUCUUCGGAUGCAGAGGCGGCAGCCUUCGGUGGCGCGAUAGCGCCAACGUUCUCAACUAUGACAUGCAAAACGCGUGCUCCGUUGAAUGGAGUUUAUCAUG	≤ -4.2
GGAUCUUCUCGAUCUAACAAAAAAGACAAAUCUUCCACAAAGCUUGAGAGCAUCUUCGGAUGCAGAGGCGGCAGCUUUCGGUGGCGCGAUAGCGCCAACGUUCUCAACUAUGACACGCUAAACGCGUGCUCCGUUGAAUGGAGUUUAUCAUG	-3.19
GGAUCUUCUCGAUCUAACAAAAAAGACAAAUCUUCCACAAAGCUUGAGAGCAUCUUCGGAUGCAGAGGCGGCAGGCUUCGUUGGCGUGAUAGCGCCAACGUUCUCAACUAUGACACGCAUAACGCGUGCUCCGUUGAAUGGAGUUUAUCAUG	-3.98
GGAUCUUCUCGAUCUAACAAAAAAGACAAAUCUCCCACAAAGCUUGAGAGCAUCUUCGGAUGCAGAGGCGGCAGCCUUCGGUGGCGCGAUAGCGCCAACGUUCUCAACUAUGACACGCAAAACGCGUGCUCCGUUGAAGGGAGUUUAUCAUG	-3.21
GGAUCUUCUCGAUCUAACAAAAAAGACAAAUCUUCCACAAGGCUUGAGAGCAUCUUCGGAUGCAGAGGCGGCAGCCUUCGAUGUCGAGAUAGAGCCAACGUUCUCAACUGUGACACGCAAAACGCGUGCUCCGUUGAAUGGAGUUUAUCAUG	≤ -4.2
GGAUCUUCUCGAUCUAACAAAAAAGACAAAUCUUCCACAAAGCUUGUGAGCAUCUUCGGAUGCAGAGGCGGCAGCCUUCGGUGGCGCGAUAGCGCCAACGUUCUCAACUAUGACACGCAAAACGCGUGCUCCGUUGAAUGGAGUUUAUCAUG	-2.01
GGAUCUUCUCGAUCUAACAAAAAAGACAAAUCUUCCACAAAGCUUGAGAGCAUUUUCGGAUGCAGCGGCGGCAGCCUUCGGUGGCGCGAUUGCGCCAACGUUCUCAACUAUGACACGCAAUACGCGUGCUCCGUUGAAUGGAGUUUAUCAUG	-4.11
GGAUCUUCUCGAUCUAACAAAAAAGACAAAUCUUCCUCAAAGCUUGAGAGCAUCAUCGGAUGCAGAGGCGGCAGCCUUCGGUGGCGCGAUAGCGCCAACGUUCUCAACUAUGACACGCAAAACGCGUGCUCCGUUUAAUGGAGUUUAUCAUG	≤ -4.2
